The source of these data is paper PMC2837607, “Orthophosphate binding at the dimer interface of Corynebacterium callunae starch phosphorylase: mutational analysis of its role for activity and stability of the enzyme” (BMC Biochemistry, 2010).

For assay [1], the target named is Corynebacterium callunae starch phosphorylase, wild-type (Corynebacterium callunae).
Assay [2] has the same target. The source holds these as a separate data set.
Assay [3] shares this target. The source holds these as a separate data set.
In assay [4] the target is T1, Corynebacterium callunae starch phosphorylase (CcGlgP) (Corynebacterium callunae, UniProt Q8KQ56, S175A).
T1 construct: full-length, N-terminal RGSHHHHHHGSA tag kept, from pQE 30-GlgP in E. coli JM109; homodimer (small tetramer fraction caused by tag); PLP enzyme
T1 sequence (Q8KQ56 entry or part of it S175A): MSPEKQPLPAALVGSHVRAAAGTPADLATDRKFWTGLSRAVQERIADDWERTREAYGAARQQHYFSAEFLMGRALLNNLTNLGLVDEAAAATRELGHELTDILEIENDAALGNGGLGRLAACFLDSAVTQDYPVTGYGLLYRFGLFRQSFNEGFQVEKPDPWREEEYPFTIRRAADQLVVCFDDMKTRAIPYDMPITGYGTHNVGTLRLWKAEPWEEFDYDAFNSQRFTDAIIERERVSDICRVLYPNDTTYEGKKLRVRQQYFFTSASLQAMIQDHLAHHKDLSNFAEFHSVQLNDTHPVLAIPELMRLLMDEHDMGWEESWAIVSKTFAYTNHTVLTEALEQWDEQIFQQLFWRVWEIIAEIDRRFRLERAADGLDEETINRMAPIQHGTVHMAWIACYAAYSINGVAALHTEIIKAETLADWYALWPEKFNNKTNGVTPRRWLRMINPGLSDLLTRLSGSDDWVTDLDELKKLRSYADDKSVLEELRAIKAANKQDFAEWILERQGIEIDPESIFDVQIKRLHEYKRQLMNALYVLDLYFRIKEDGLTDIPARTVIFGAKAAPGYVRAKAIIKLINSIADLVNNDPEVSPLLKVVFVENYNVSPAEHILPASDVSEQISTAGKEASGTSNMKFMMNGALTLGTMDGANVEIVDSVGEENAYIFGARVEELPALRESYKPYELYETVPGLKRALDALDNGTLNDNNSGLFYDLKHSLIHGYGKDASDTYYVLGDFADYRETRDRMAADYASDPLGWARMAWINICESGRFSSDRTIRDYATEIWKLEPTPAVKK
Description: colorimetric PLP quantitation of the isolated enzyme. The assay is classed as binding. Particulars: covalent (Schiff base with active-site Lys); as isolated. From the text: (§1) colorimetric PLP quantitation of the isolated enzyme on Corynebacterium callunae starch phosphorylase (CcGlgP)

The target of assay [5] is T2, Corynebacterium callunae starch phosphorylase (CcGlgP) (Corynebacterium callunae, UniProt Q8KQ56, R142A).
T2 construct: full-length, N-terminal RGSHHHHHHGSA tag kept, from pQE 30-GlgP in E. coli JM109; homodimer (small tetramer fraction caused by tag); PLP enzyme
T2 sequence (Q8KQ56 entry or part of it R142A): as the sequence (Q8KQ56 entry or part of it S175A) above, with R142A, A175S counted along it
The assay is described as above. The assay is classed as binding. Particulars: covalent (Schiff base with active-site Lys); as isolated.
Source text: as §1

The target in assay [6] is T3, Corynebacterium callunae starch phosphorylase (CcGlgP) (Corynebacterium callunae, UniProt Q8KQ56, T29A).
T3 construct: full-length, N-terminal RGSHHHHHHGSA tag kept, from pQE 30-GlgP in E. coli JM109; homodimer (small tetramer fraction caused by tag); PLP enzyme
T3 sequence (Q8KQ56 entry or part of it T29A): as the sequence (Q8KQ56 entry or part of it S175A) above, with T29A, A175S counted along it
The assay is described as above. In kind it is binding. Particulars: covalent (Schiff base with active-site Lys); as isolated.
Source text: as §1

The target in assay [7] is T4, Corynebacterium callunae starch phosphorylase (CcGlgP) (Corynebacterium callunae, UniProt Q8KQ56, K32A).
T4 construct: full-length, N-terminal RGSHHHHHHGSA tag kept, from pQE 30-GlgP in E. coli JM109; homodimer (small tetramer fraction caused by tag); PLP enzyme
T4 sequence (Q8KQ56 entry or part of it K32A): as the sequence (Q8KQ56 entry or part of it S175A) above, with K32A, A175S counted along it
The description is as above. In kind it is binding. Conditions: covalent (Schiff base with active-site Lys); as isolated.
Source text: as §1

Assay [8] has as its target T5, Corynebacterium callunae starch phosphorylase (CcGlgP) (Corynebacterium callunae, UniProt Q8KQ56). The assay is described as above. In kind it is binding. Set-up: full-length, N-terminal RGSHHHHHHGSA tag kept, from pQE 30-GlgP in E. coli JM109; homodimer (small tetramer fraction caused by tag); PLP enzyme. Particulars: covalent (Schiff base with active-site Lys); as isolated.
Source text: as §1

Assay [9] deals with Corynebacterium callunae starch phosphorylase T28A (Corynebacterium callunae).
Assay [10] deals with T5, Corynebacterium callunae starch phosphorylase (CcGlgP). Particulars: 50 mM triethanolamine, pH 7.0; dimer-interface P- and CAP-sites, not the catalytic site; stabilisation against subunit dissociation.
For assay [11], the target named is Corynebacterium callunae starch phosphorylase K31A (Corynebacterium callunae).
Assay [12] concerns the target Corynebacterium callunae starch phosphorylase R141A (Corynebacterium callunae). The assay can be described thus: SEC; R141A as isolated, prior to imidazole, 0.4 mg/ml; HiLoad 16/60 Superdex 200 prep grade, 50 mM potassium phosphate buffer pH 7.0, 0.15 M NaCl, 1 ml/min; calibrated with Bio-Rad Gel Filtration Standard. For orientation: SEC sorts molecules by how far they enter the pores of the column.

For assay [13] the target is unchanged.
The target in assay [14] is Corynebacterium callunae starch phosphorylase S174A (Corynebacterium callunae).
For assay [15] the target is unchanged. The source holds these as a separate data set.
Assay [16] deals with T5, Corynebacterium callunae starch phosphorylase (CcGlgP). Description: initial rate of glucan synthesis, Pi release. Details: full-length, N-terminal RGSHHHHHHGSA tag kept, from pQE 30-GlgP in E. coli JM109; homodimer (small tetramer fraction caused by tag); PLP enzyme. In kind it is biochemical. Particulars: 50 mM G1P, 20 g/l starch, pH 7.0, 30 °C; apparent activation through dimer stabilisation, not allosteric.

Where “and” joins values, the source holds several entries; their conditions need not be identical. Equal values may be shown once.

T5 sequence (Q8KQ56 entry or part of it): as the sequence (Q8KQ56 entry or part of it S175A) above, with A175S counted along it

The molecule “Corynebacterium callunae starch phosphorylase, wild-type (enzyme)” showed a stimulation of the initial rate of glucan synthesis (Vs) by sulphate (5.0 - 40 mM (NH4)2SO4), 50 mM G1P, relative to the control lacking sulphate; maximum at around 10 mM sulphate in assay [1] of 3 fold. In addition, in assay [2], the apparent activation of Vs by 10 mM sulphate at 2.5 nM protein, 50 mM G1P was found to be 2.4 fold. In [3], this molecule registered a half-life time (t1/2) of enzyme activity at 45°C, pH 7.0; no Pi, 10.0 mM Pi, 100 mM Pi (2.6, 2.8 × 10^2, 3.5 × 10^3 min) of 3500 min and a half-life time (t1/2) of enzyme activity in 0.4 M imidazole at 30°C; no Pi, 5.0 mM Pi (22, 160 min) of 160 min.
As for `Cc1ncc(COP(=O)(O)O)c(C=O)c1O` [pyridoxal 5'-phosphate], the “PLP / [μM/μM protein]” value in assay [4] came to 0.7 μM/μM protein; in assay [5] it was 0.7 μM/μM protein; in assay [6] it was 0.6 μM/μM protein; in assay [7], 0.6 μM/μM protein; in assay [8], 0.7 μM/μM protein.
In [9], “Corynebacterium callunae starch phosphorylase T28A (enzyme)” yielded a half-life time (t1/2) of enzyme activity at 45°C, pH 7.0; no Pi, 10.0 mM Pi, 100 mM Pi (0.8, 2.2, 3.3 × 10^2 min) of 330 min and a half-life time (t1/2) of enzyme activity in 0.4 M imidazole at 30°C; no Pi, 5.0 mM Pi (1.9, 5.6 min) of 5.6 min.
Turning to `O=P(O)(O)O` [orthophosphate], the “inactivation at 45°C / 10.0 mM Pi” value in assay [10] is 280 min.
On to “Corynebacterium callunae starch phosphorylase K31A (enzyme)”, for which, in assay [11], the half-life time (t1/2) of enzyme activity at 45°C, pH 7.0; no Pi, 10.0 mM Pi, 100 mM Pi (5.3, 1.7 × 10^2, 3.5 × 10^3 min) was found to be 3500 min and the half-life time (t1/2) of enzyme activity in 0.4 M imidazole at 30°C; no Pi, 5.0 mM Pi (10, 25 min) was determined as 25 min.
For “Corynebacterium callunae starch phosphorylase R141A (enzyme)”, the stoichiometry N (as a rule, the number of molecules, sites or subunits per partner or assembly) in assay [12] was 2 and 4. In addition, in [13], the half-life time (t1/2) of enzyme activity at 45°C, pH 7.0; no Pi, 10.0 mM Pi, 100 mM Pi (2.9, 7.5, 1.4 × 10^3 min) turned out to be 1400 min and the half-life time (t1/2) of enzyme activity in 0.4 M imidazole at 30°C; no Pi, 5.0 mM Pi (6.4, 27 min) was 27 min.
In the case of “Corynebacterium callunae starch phosphorylase S174A (enzyme)”, the enhancement of Vs by 10 mM sulphate, 50 mM G1P; protein 2.5 nM (~5-fold) and 50 nM (1.7-fold) in assay [14] worked out at 5 fold. For the same molecule, in assay [15], the half-life time (t1/2) of enzyme activity at 45°C, pH 7.0; no Pi, 10.0 mM Pi, 100 mM Pi (2.8, 33, 9.9 × 10^2 min) amounted to 990 min and the half-life time (t1/2) of enzyme activity in 0.4 M imidazole at 30°C; no Pi, 5.0 mM Pi (14, 58 min) was 58 min.
In the case of `O=S(=O)(O)O` [sulphate], the “maximum stimulation of Vs at around 10 mM sulphate” value in assay [16] was ~ 3 fold.
